Test results taken from the supplement of paper PMC10201428.
± gives the standard deviation of the averaged measurements.

Columns and labels:
[1] = test system: VchCAST RNA-guided transposition machinery (E. coli BL21(DE3) host, lacZ target); assay: relative integration efficiency (T-RL orientation) vs wild-type transposon end (log2 (normalized fold change)); transposon end mutated: left end; higher = more efficient transposition
Method in brief: (§1)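 Barcode abundances in input plasmids and in genomic integration junctions were obtained by PCR amplification and Illumina sequencing. These came from E. coli BL21(DE3) co-transformed with a T7-driven effector plasmid and a pUC57 donor carrying 1549 left-end or 1849 right-end transposon variants, then plated with 0.1 mM IPTG at 37°C for 18 h. Relative integration efficiency is the output/input fold change, normalised to reference barcodes and log-transformed.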

[2] = test system: VchCAST RNA-guided transposition machinery (E. coli BL21(DE3) host, lacZ target); assay: relative integration efficiency (T-LR orientation) vs wild-type transposon end (log2 (normalized fold change)); transposon end mutated: left end; higher = more efficient transposition
Method in brief: as §1

| Sequence | relative integration efficiency (log2) [1] | relative integration efficiency (log2) [2] |
| --- | --- | --- |
| AATGTTGTTGATGCAACCATAAAGTGATATTTAATAATTATTTATAATCAGCAACTTAACCACAAAACAACCATATATTGATATCTCACAAAACAACCATACTGGTCGCGGGGGTGTCCGATCTGATTTCAGCAAAACTACTGCAGTAAGAA | -2.24 ± 0.99 | -0.966 ± 1.7 |
| AATGTTGTTGATGCAACCATAAAGTGATATTTAATAATTATTTATAATCAGCAACTTAACCACAAAACAACCATATATTGATATCTCACAAAACAACCATCCTGGTCGCGGGGGTGTCCGATCTGATTTCAGCAAAACTACTGCAGTAAGAA | -1.99 ± 0.82 | -0.61 ± 0.64 |
| AATGTTGTTGATGCAACCATAAAGTGATATTTAATAATTATTTATAATCAGCAACTTAACCACAAAACAACCATATATTGATATCTCACAAAACAACCCGCCTGGTCGCGGGGGTGTCCGATCTGATTTCAGCAAAACTACTGCAGTAAGAA | -2.27 ± 0.81 | -1.63 ± 2.3 |
| AATGTTGTTGATGCAACCATAAAGTGATATTTAATAATTATTTATAATCAGCAACTTAACCACAAAACAACCATATATTGATATCTCACAAAACACAACGCCTGGTCGCGGGGGTGTCCGATCTGATTTCAGCAAAACTACTGCAGTAAGAA | -2.63 ± 1.3 | -0.789 ± 1.1 |
| AATGTTGTTGATGCAACCATAAAGTGATATTTAATAATTATTTATAATCAGCAACTTAACCACAAAACAACCATATATTGATATCTCACAAAACCCAACGCCTGGTCGCGGGGGTGTCCGATCTGATTTCAGCAAAACTACTGCAGTAAGAA | -2.31 ± 0.93 | -0.934 ± 0.6 |
| AATGTTGTTGATGCAACCATAAAGTGATATTTAATAATTATTTATAATCAGCAACTTAACCACAAAACAACCATATATTGATATCTCACAAAAGTTGGTATTCAACTATAAAATGTGAATCGAGTATTTCAGCAAAACTACTGCAGTAAGAA | -2.5 ± 0.79 | -0.838 ± 0.94 |
| AATGTTGTTGATGCAACCATAAAGTGATATTTAATAATTATTTATAATCAGCAACTTAACCACAAAACAACCATATATTGATATCTCACAAACAACCATAAGTTGATATTTTTGTGAATCGAGTATTTCAGCAAAACTACTGCAGTAAGAAA | -1.69 ± 0.68 | -0.446 ± 0.92 |
| AATGTTGTTGATGCAACCATAAAGTGATATTTAATAATTATTTATAATCAGCAACTTAACCACAAAACAACCATATATTGATATCTCACAAACACCAACGCCTGGTCGCGGGGGTGTCCGATCTGATTTCAGCAAAACTACTGCAGTAAGAA | -2.54 ± 0.9 | -0.664 ± 1.2 |
| AATGTTGTTGATGCAACCATAAAGTGATATTTAATAATTATTTATAATCAGCAACTTAACCACAAAACAACCATATATTGATATCTCACAACAACCATAAGTTGATATTTTTGTGAATCGAGTATTTCAGCAAAACTACTGCAGTAAGAAAG | -3.43 ± 0.95 | -1.51 ± 0.32 |
| AATGTTGTTGATGCAACCATAAAGTGATATTTAATAATTATTTATAATCAGCAACTTAACCACAAAACAACCATATATTGATATCTCACAACCACCAACGCCTGGTCGCGGGGGTGTCCGATCTGATTTCAGCAAAACTACTGCAGTAAGAA | -2.63 ± 0.74 | -0.813 ± 1.4 |
| AATGTTGTTGATGCAACCATAAAGTGATATTTAATAATTATTTATAATCAGCAACTTAACCACAAAACAACCATATATTGATATCTCACAACCATAAGTTGATATTTTTGTGAATCGAGTATTTCAGCAAAACTACTGCAGTAAGAAAGTTA | -3.63 ± 0.88 | -1.81 ± 1.5 |
| AATGTTGTTGATGCAACCATAAAGTGATATTTAATAATTATTTATAATCAGCAACTTAACCACAAAACAACCATATATTGATATCTCACACAACCATAAGTTGATATTTTTGTGAATCGAGTATTTCAGCAAAACTACTGCAGTAAGAAAGT | -3.26 ± 0.94 | -1.4 ± 0.91 |
| AATGTTGTTGATGCAACCATAAAGTGATATTTAATAATTATTTATAATCAGCAACTTAACCACAAAACAACCATATATTGATATCTCACACCCACCAACGCCTGGTCGCGGGGGTGTCCGATCTGATTTCAGCAAAACTACTGCAGTAAGAA | -2.48 ± 0.87 | -1.23 ± 1.7 |
